# Laboratory results published in the DeepSol protein solubility set.
# Test: soluble on expression in E. coli; label from the status in PepcDB or PDB records
row,Sequence,soluble on expression in E. coli
1,MAASMTKPISITSLGFYSDRKNIAFSDCISICSGFRHSRPSCLDLVTKSPSNNSRVLPVVSAQISSDYIPDSKFYKVEAIVRPWRIQQVSSALLKIGIRGVTVSDVRGFGAQGGSTERHGGSEFSEDKFVAKVKMEIVVKKDQVESVINTIIEGARTGEIGDGKIFVLPVSDVIRVRTGERGEKAEKMTGDMLSPS,not soluble
2,MAATMNEGNAQHAWDLMKKITFAMLATRDGEKIRSRPMAAYVRPEEGAIYFLTDVRRHKDEEIAQDHHVNLGFANASAQKYVSVTGYAAISNDRAKIKELFGTEAKAWWDSADDPNIRVLKVTPEEAEYWDSPGSLISYAKMMVAAATGNRPDLGENAKVAI,not soluble
3,MAAVTELPKMNQELAGAVREGLELKKVETTEKNVLPTKEDVAEEKQHVERIHEIEHFDSTKLHSTPVKEKIVLPSADDIKQEKQHLELTDKINNFPSENLKKTETIEKNVLPSPTDVAREKTLQMAASFDKSALHHVETIVSTDVRVTEAQ,soluble
4,MAAVVKSVALAGRPTTPDRVHEVLGRSMLVDGLDIVLDLTRSGGSYLVDAITGRRYLDMFTFVASSALGMNPPALVDDREFHAELMQAALNKPSNSDVYSVAMARFVETFARVLGDPALPHLFFVEGGALAVENALKAAFDWKSRHNQAHGIDPALGTQVLHLRGAFHGRSGYTLSLTNTKPTITARFPKFDWPRIDAPYMRPGLDEPAMAALEAEALRQARAAFETRPHDIACFVAEPIQGEGGDRHFRPEFFAAMRELCDEFDALLIFDEVQTGCGLTGTAWAYQQLDVAPDIVAFGKKTQVCGVMAGRRVDEVADNVFAVPSRLASTWGGNLTDMVRARRILEVIEAEGLFERAVQHGKYLRARLDELAADFPAVVLDPRGRGLMCAFSLPTTADRDELIRQLWQRAVIVLPAGADTVRFRPPLTVSTAEIDAAIAAVRSALPVVT,soluble
5,MACGLALKRPLQHEYESFLTDETYNGEAKRARTQCPPFRAQMGTIAATLPSTSTFAQKFKEQEESVFQAATLMTRLSRNQLKTYLSSEVKNLRKRKAIPRSNDFDDDGDQRGDGCSSNYSKAYRAPSSPKSGSDSEGEAPSTSVTDRSSAKREFTMANVQMICERLLKQQEIRLRNEFEMVLTKKLDEQHQQYVQFAAEQLNSKCVSTGDDYSYSYLS,not soluble
6,MADAAPQLGKRKRELDVEEAHAASTEEKEAGVGNGTCAPVRLPFSGFRLQKVLRESARDKIIFLHGKVNEASGDGDGEDAVVILEKTPFQVEQVAQLLTGSPELQLQFSNDIYSTYHLFPPRQLNDVKTTVVYPATEKHLQKYLRQDLRLIRETGDDYRNITLPHLESQSLSIQWVYNILDKKAEADRIVFENPDPSDGFVLIPDLKWNQQQLDDLYLIAICHRRGIRSLRDLTPEHLPLLRNILHQGQEAILQRYRMKGDHLRVYLHYLPSYYHLNVHFTALGFEAPGSGVERAHLLAEVIENLECDPRHYQQRTLTFALRADDPLLKLLQEAQQS,soluble
7,MADIVVDGIRATYNIRGESAALLCPPHPLMGGSRFDVRLERIAAELTKRNVSVLRFDYQRPFRSGIGEVEDAKKCVAYLKDRHDKIAVIRYSFGSVVASNVAEYCDAAVYISPLPEINSIYFKDAEIPKLFIIATRDQFVSLEESVKLYEQASKPKEVVKVETDHFYFGKFDFIAKITADFIERQSF,soluble
8,MADKIKVSLLGSTGMVGQKMVKMLAKHPYLELVKVSASPSKIGKKYKDAVKWIEQGDIPEEVQDLPIVSTNYEDHKDVDVVLSALPNELAESIELELVKNGKIVVSNASPFRMDPDVPLINPEINWEHLELLKFQKERKGWKGILVKNPNCTAAIMSMPIKPLIEIATKSKIIITTLQAVSGAGYNGISFMAIEGNIIPYIKGEEDKIAKELTKLNGKLENNQIIPANLDSTVTSIRVPTRVGHMGVINIVTNERINIEEIKKTLKNFKSLPQQKNLPTAPKQPIIVRDEEDRPQPIIDVNAESGMAVTVGRIRHENNVLRLVVLGDNLVRGAAGITILTVEVMKELGYI,soluble
9,MADKREPAPGWPILKGEYEVGDVKNSVLVITCGSHLPGKPILDAGAACTGSCKTENLGIEKVVAHIISNPNIRYLLVTGSEVKGHITGQSMMSLHANGVKENRIAGALGAIPYVENLNAAAVARFQEQVQVVNLLDTEDMGAITSKVRELASKDPGAFDADPLVVEISEEGEEEEEGGVVRPVSGEIAVLRSRLKAIEARMMDI,not soluble
10,MADKRIRSDSSAAAVQAMKNAAVDTIDPPSHAGLEKKAEPFWHDNIRSKALDSWTPADLLAAVELANNQLYITVLRKDLRKEERIRGEERDEGLIKDLRKQIVELQRTILAQRRDLQIHSHATNGESRDQKKRNQNDRDARNTKNEHQDQDDNLIAFPKHG,not soluble
11,MADLEAVLADVSYLMAMEKSRSQPAARASKRIVLPDPSVRSIMQKFLEKSGDMKFDKIFNQKLGFLLLKDYAENVSESPCPQIKFYEAIKEYEKMETPDERLTKAREIYDHHIMVEMLAHAHNYSKESLQHVQYHLLKQNVPPDLFHRYVLEICDQLRGDIFQRFLESDKFTRFCQWKNLELNMQLTMNDFSVHRIIGRGGFGEVYGCRKADTGKMYAMKCLDKKRIKMKQGETLALNERIMLSLVSTGQDCPFIVCMTYAFQSPDKLCFILDLMNGGDLHYHLSQHGVFTEQEMIFYASEVILGLEHMHNRFVVYRDLKPANILLDENGHVRVSDLGLACDYSKKKPHASVGTHGYMAPEVLAKGVAYDSSADWFSLGCMLYKLLKGHSPFRQHKSKDKNEIDKMTLTQDIELPNEGLSKDCRDLLEGLLKRDVPDRLGCRGKGPTEVKEHPFFKDVDWQTVYLRRMTPPLIPPRGEVNAADAFDIGNFDDDEVKGVKLQDGDSDLYKNFNIVISERWQNEIAETIFEVVNQDADKAESKKRSKQKIKVAVEEKDSDVIVHGYIKKLGGPFTSAWQTKYGKLYPSRLELYPESLTAKPELVFMDQIEDVCAEMQTIKGETAIIVKLRDGFKEPKICLTNSDEISLKEWHTSLRTAHKVSQELLQRMGRKAIKIYGVNHDPMLSESERPGSVTRAFLNRASSVDSGV,not soluble
12,MADLFPADFEPVFINIGDLELYNQDLDDEGTPTEAWTTFREEVKQVDGVMFVTPEYNRSVPAVLKNALDVGSRPYGESVWDKKPGLVVSVSPGAISGFGANHHLRQSLVFLNVPTLQQPEAYIGGITNLIGEDGKIIDGTVGFLQSIVDAYVDFFNRLTA,not soluble
13,MADPDSYRSSITSRPAFNRTVTSSTQNYGTPASGNRVLKIVTETHTSSVASGLSPYGQGAASTIRDDREREKKEITELNDRLASYIGKVRFLAAQNRKLEADLNVLQSRFGKSTGSVKIMYEMEITTATNVVKETGKDHEEAEKEIGKIKDQLDELRKKFEEAQKGRAEDRLKIDELLVTLSNLEAEINLLKRRIALLEEEVARLKKENFRLTSELQRVRSELDQETLLRIDNQNKVTTILEEIDFMKRGFETELKDLQAQAARDTTSENREYFKNELMNSIRDIRAEYDRFMAGNRNDLESWSQIRVQEINTQTNRQNAEINHKRDEVKRLHSQVSELKSKHAELAARNGLLEKQLEDLNYQLEDDQRSYEAALNDKDAQVRKLREECQALLVELQMLLDTKQTLDGELKVYRRMLEGNSEENGLRQLVEKVVRTSAINEEVDTETMRVVKGEHSSRTSYQRSAKGNVSIKEVSPEGKFVILENTHRDKEEPLGDWKLKRKIDGKREIVFTFPSDYILHPVQTVKIFARGNGVANPPEVLVFEGDDTFGAGANVQTILYNNSGEERATHMQRQSQQTTTS,not soluble
14,MADSDLPTKGRQRGVRAVELNVAARLENLALLRTLVGAIGTFEDLDFDAVADLRLAVDEVCTRLIRSALPDATLRLVVDPRKDEVVVEASAACDTHDVVAPGSFSWHVLTALADDVQTFHDGRQPDVAGSVFGITLTARRAASSR,not soluble
15,MADSPNRLNRAKIDSTTMKDPRVLNNLKLRELLLPKFTSLWEIQTEVTVDNRTILLTWMHLLCESFELDKSVFPLSVSILDRYLCKKQGTKKTLQKIGAACVLIGSKIRTVKPMTVSKLTYLSCDCFTNLELINQEKDILEALKWDTEAVLATDFLIPLCNALKIPEDLWPQLYEAASTTICKALIQPNIALLSPGLICAGGLLTTIETDNTNCRPWTCYLEDLSSILNFSTNTVRTVKDQVSEAFSLYDLEIL,soluble
16,MAEAVITLTEAAAFQIKDMMKEQEEEGAYLRVGVHGGGCSGLSYGMGFDHERRDDDIEFEQHGIKILVDRDSAPILRGTVIDYKQSLLGGGFTINNPNAIATCGCGSSFRTATNAGTPEQC,soluble
17,MAEDKTKPSELDQGKYDADDNVKIICLGDSAVGKSKLMERFLMDGFQPQQLSTYALTLYKHTATVDGRTILVDFWDTAGQERFQSMHASYYHKAHACIMVFDVQRKVTYRNLSTWYTELREFRPEIPCIVVANKIDADINVTQKSFNFAKKFSLPLYFVSAADGTNVVKLFNDAIRLAVSYKQNSQDFMDEIFQELENFSLEQEEEDVPDQEQSSSIETPSEEAASPHS,soluble
18,MAEETIFSKIIRREIPSDIVYQDDLVTAFRDISPQAPTHILIIPNILIPTVNDVSAEHEQALGRMITVAAKIAEQEGIAEDGYRLIMNTNRHGGQEVYHIHMHLLGGRPLGPMLAHKGL,soluble
19,MAEIGIFVGTMYGNSLLVAEEAEAILTAQGHKATVFEDPELSDWLPYQDKYVLVVTSTTGQGDLPDSIVPLFQGIKDSLGFQPNLRYGVIALGDSSYVNFCNGGKQFDALLQEQSAQRVGEMLLIDASENPEPETESNPWVEQWGTLLS,soluble
20,MAEKTVYRVDGLSCTNCAAKFERNVKEIEGVTEAIVNFGASKITVTGEASIQQVEQAGAFEHLKIIPEKEA,soluble
21,MAELKALQNGSDIRGIALDTEEQTATLTATAVAEIAVGVVRWLQDKKQLPRKAQQRLTIAIGHDSRLTAEPIKQALVDTFLSLGIQVIDVGLATTPAMFMATQFPTLQCDAAIMITASHLPYYFNGLKFFTAEGGAEKEDIRYILSHTDPLTANENGTLMKQELLPIYAEHLVEKIRQGIHSPEEKPLQGFRIIVDAGNGAGGFFAEQVLQVLGADTTGSQFLEPDGHFPNHVPNPDNSEAMKSIQTAVLANQADLGIIFDTDVDRSAVVDQSGEVLNRNNLIAVLAAIVLKEAPGSYIVTNSPTSSHLKTFIEEKGGQQIRYISGYRNVINKMIELNHGGFQTPLAIETSGHAAFQENYNLDDGAYVVAKILMLLPELKQNNQTLGDLIATLKQPAETNEFRFKITAEDVTCYGQQVLRDFELFVENQADFAVDRENQEGVRGNVSGQYGSGWFLLRLSLHEPLLVLQVENDQSDKNACVIEKIATFLQKYEEIDSQQIEK,not soluble
22,MAENRYELNKNLAQMLKGGVIMDVQNPEQARIAEAAGAAAVMALERIPADIRAVGGVSRMSDPKMIKEIQGAVSIPVMAKVRIGHFVEAQILEAIEIDYIDESEVLSPADNRFHVDKKEFQVPFVCGAKDLGEALRRIAEGASMIRTKGEPGTGDIVQAVRHMRMMSQEIRRIQNLREDELYVAAKDLQVPVELVQYVHKHGKLPVVNFAAGGIATPADAALMMQLGAEGVFVGSGIFKSGDPIKRASAIVKAVTNYRNPQILAQISEDLGEAMVGINENEIQILMAERGKLEHHHHHH,not soluble
23,MAESRSPDRGAKEDKPRPRNISREESLQLEGYKHACHALLHAPSQAKLFDRVPIRRVLLMMMRFDGRLGFPGGFVDTRDISLEEGLKRELEEELGPALATVEVTEDDYRSSQVREHPQKCVTHFYIKELKLEEIERIEAEAVNAKDHGLEVMGLIRVPLYTLRDRVGGLPAFLCNNFIGNSKSQLLYALRSLKLLREDQIQEVLKASHRLQY,soluble
24,MAFDGCCPDCKLPGDDCPLIWGACNHAFHLHCILKWVNSQTSQAHCPMCRREWQFKE,soluble
25,MAFERQGKIEKKISYSLFLNGPNVHFGSILFGAVDKSKYAEELCTHPMRQAYNTLDSNSRIIITVQSVAILDGKLVW,not soluble
